Data from the supplement of paper PMC10724198.
± gives the standard deviation of the averaged measurements.

system: Saccharomyces cerevisiae; experiment: protein stability index of tFT-peptide fusion (C-terminal peptide) (PSI (0-1 scale)); higher = more stable (slower turnover); settings: genetic background: wild type; temperature: 30 C
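Further: PSI is a weighted mean of sequencing reads over stability bins, variants kept only with over 10 reads, mCherry proximal and sfGFP distal, peptide attached via GGGS linker.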

Q: Which protein stability index does the source give for SVSPRVSSLSPL here?
A: Its protein stability index is 0.671 ± 0.013.

Q: For SVSRTARELREV, which protein stability index is on record?
A: Its protein stability index is 0.65902 ± 0.00035.

Q: For SVVGRLVGGFRW, which protein stability index is on record?
A: Its protein stability index is 0.706 ± 0.021.

Q: Which protein stability index does the source give for SVVSFIRRRSFL here?
A: Its protein stability index is 0.8656 ± 0.0084.

Q: With SVYLIRSLEALR as the sequence, how does the protein stability index read?
A: The protein stability index was 0.679 ± 0.019.

Q: How did the protein stability index turn out when SWFCSWVVRFFR was run?
A: The protein stability index was 0.691 ± 0.065.

Q: For SWLRPTCLDLYF, which protein stability index is on record?
A: The protein stability index was 0.76 ± 0.029.

Q: For SWSRAAYKGPWG, which protein stability index is on record?
A: Its protein stability index is 0.702 ± 0.015.

Q: SWTGDGWMWRRR was tested. Which protein stability index did it give?
A: Its protein stability index is 0.658 ± 0.019.

Q: Which protein stability index does the source give for SYESKPPLSWDS here?
A: Its protein stability index is 0.73 ± 0.11.

Q: For SYGIETRLKGKK, which protein stability index is on record?
A: The protein stability index was 0.63 ± 0.082.

Q: SYKSLGLVEFRV was tested. Which protein stability index did it give?
A: The protein stability index was 0.712 ± 0.054.

Q: How did the protein stability index turn out when SYSSRSCALRVI was run?
A: Its protein stability index is 0.533 ± 0.043.

Q: TAGAYSLSTGNH was tested. Which protein stability index did it give?
A: Its protein stability index is 0.651 ± 0.024.

Q: TALSPPVPTLPP was tested. Which protein stability index did it give?
A: Its protein stability index is 0.7 ± 0.013.

Q: TARPDKDYPRLA was tested. Which protein stability index did it give?
A: Its protein stability index is 0.678 ± 0.013.

Q: How did the protein stability index turn out when TARPPSPPSTRL was run?
A: The protein stability index was 0.732 ± 0.036.

Q: For TASLSPSHRFYS, which protein stability index is on record?
A: The protein stability index was 0.66863 ± 0.00061.

Q: For TATPQRQPHKSP, which protein stability index is on record?
A: Its protein stability index is 0.706 ± 0.013.

Q: With TATRIPHTPIPL as the sequence, how does the protein stability index read?
A: The protein stability index was 0.732 ± 0.037.

Q: Which protein stability index does the source give for TAVIRASRFEEI here?
A: The protein stability index was 0.672 ± 0.0055.

Q: TAWVDSMVCMLL was tested. Which protein stability index did it give?
A: The protein stability index was 0.71 ± 0.034.

Q: Which protein stability index does the source give for TCDSGSEDNVAA here?
A: Its protein stability index is 0.7053 ± 0.0032.

Q: For TCERGGQIKCRV, which protein stability index is on record?
A: The protein stability index was 0.657 ± 0.058.

Q: TCLWVCARGFGG was tested. Which protein stability index did it give?
A: The protein stability index was 0.693 ± 0.021.

Q: Which protein stability index does the source give for TCNWQGASSIIG here?
A: Its protein stability index is 0.6765 ± 0.0033.

Q: For TDFAVTKDFTEI, which protein stability index is on record?
A: Its protein stability index is 0.683 ± 0.033.

Q: With TDTCLQDCLVFV as the sequence, how does the protein stability index read?
A: Its protein stability index is 0.546 ± 0.039.

Q: How did the protein stability index turn out when TECGKVGGGGEA was run?
A: The protein stability index was 0.689 ± 0.062.

Q: How did the protein stability index turn out when TECGVRRGLVGR was run?
A: Its protein stability index is 0.651 ± 0.025.

Q: Which protein stability index does the source give for TEKTEAKNCNTK here?
A: The protein stability index was 0.697 ± 0.0089.

Q: For TFLFARLSFCKH, which protein stability index is on record?
A: Its protein stability index is 0.613 ± 0.0071.

Q: Which protein stability index does the source give for TFRADGYFFGRR here?
A: The protein stability index was 0.637 ± 0.042.

Q: Which protein stability index does the source give for TGCEVSINSCVE here?
A: Its protein stability index is 0.656 ± 0.046.

Q: How did the protein stability index turn out when TGDFFGGLGTWS was run?
A: Its protein stability index is 0.701 ± 0.016.

Q: With TGGESEPRDTIQ as the sequence, how does the protein stability index read?
A: The protein stability index was 0.701 ± 0.017.

Q: With TGKQNRYVKKEK as the sequence, how does the protein stability index read?
A: Its protein stability index is 0.6955 ± 0.0031.

Q: How did the protein stability index turn out when TGLLLGLFGCML was run?
A: The protein stability index was 0.648 ± 0.068.

Q: With TGLSFIRCLDFK as the sequence, how does the protein stability index read?
A: The protein stability index was 0.688 ± 0.055.

Q: TGMRRLPGEVCV was tested. Which protein stability index did it give?
A: The protein stability index was 0.581 ± 0.017.

Q: With TGQVLKYVVGSQ as the sequence, how does the protein stability index read?
A: The protein stability index was 0.711 ± 0.055.

Q: TGRLDFSIQYYR was tested. Which protein stability index did it give?
A: Its protein stability index is 0.6986 ± 0.0069.

Q: For TGSIMYDLEVDK, which protein stability index is on record?
A: The protein stability index was 0.6795 ± 0.0039.

Q: For TGYEVAGWVNWC, which protein stability index is on record?
A: The protein stability index was 0.711 ± 0.018.

Q: Which protein stability index does the source give for THGFKQLTTPLD here?
A: Its protein stability index is 0.676 ± 0.014.

Q: For TIHKRTLEGSYN, which protein stability index is on record?
A: The protein stability index was 0.65 ± 0.048.

Q: How did the protein stability index turn out when TILKKKNRRNKE was run?
A: Its protein stability index is 0.697 ± 0.024.

Q: TILLNWSQVHME was tested. Which protein stability index did it give?
A: Its protein stability index is 0.7 ± 0.016.

Q: With TKKKQKIKKNNS as the sequence, how does the protein stability index read?
A: Its protein stability index is 0.748 ± 0.042.

Q: For TKKKTINRTQKQ, which protein stability index is on record?
A: The protein stability index was 0.713 ± 0.043.

Q: With TKKKTKKKEQKE as the sequence, how does the protein stability index read?
A: Its protein stability index is 0.6627 ± 0.0027.

Q: TKKKTTNKIIKI was tested. Which protein stability index did it give?
A: The protein stability index was 0.671 ± 0.054.

Q: TKKNDKIRIQKS was tested. Which protein stability index did it give?
A: Its protein stability index is 0.741 ± 0.043.

Q: Which protein stability index does the source give for TKSWSLNGTYLL here?
A: Its protein stability index is 0.703 ± 0.034.

Q: For TKTKKKKNKKQE, which protein stability index is on record?
A: Its protein stability index is 0.719 ± 0.067.

Q: TKTNKALKTSKI was tested. Which protein stability index did it give?
A: Its protein stability index is 0.699 ± 0.061.

Q: For TLARLISGKRLL, which protein stability index is on record?
A: Its protein stability index is 0.648 ± 0.022.

Q: TLEGRQKEMGIA was tested. Which protein stability index did it give?
A: Its protein stability index is 0.691 ± 0.037.

Q: With TLEHRHPAIHPE as the sequence, how does the protein stability index read?
A: The protein stability index was 0.723 ± 0.046.

Q: For TLGKPVGLARLS, which protein stability index is on record?
A: Its protein stability index is 0.692 ± 0.035.

Q: With TLKMKHKPKKNL as the sequence, how does the protein stability index read?
A: Its protein stability index is 0.6583 ± 0.0035.

Q: For TLLLLLPPLPSF, which protein stability index is on record?
A: Its protein stability index is 0.598 ± 0.023.

Q: TLSPPPLSPSAP was tested. Which protein stability index did it give?
A: Its protein stability index is 0.711 ± 0.013.

Q: TLVLQFGRKRFG was tested. Which protein stability index did it give?
A: Its protein stability index is 0.629 ± 0.013.

Q: With TLWLVSTAVLDC as the sequence, how does the protein stability index read?
A: The protein stability index was 0.534 ± 0.036.

Q: Which protein stability index does the source give for TNCNSHKLMAAL here?
A: Its protein stability index is 0.679 ± 0.011.

Q: Which protein stability index does the source give for TNGYWVIACKKF here?
A: The protein stability index was 0.672 ± 0.069.

Q: TNTPSYSSRAEF was tested. Which protein stability index did it give?
A: The protein stability index was 0.733 ± 0.11.

Q: TPGGPLLHSGFL was tested. Which protein stability index did it give?
A: Its protein stability index is 0.755 ± 0.085.

Q: For TPGLVRVGSVSF, which protein stability index is on record?
A: Its protein stability index is 0.708 ± 0.017.

Q: How did the protein stability index turn out when TPLSSPHPSPPP was run?
A: Its protein stability index is 0.595 ± 0.045.

Q: TPMEKRQDANIN was tested. Which protein stability index did it give?
A: Its protein stability index is 0.691 ± 0.015.

Q: With TPMPSCNHRPED as the sequence, how does the protein stability index read?
A: The protein stability index was 0.655 ± 0.03.

Q: For TPPHNRERPTVQ, which protein stability index is on record?
A: Its protein stability index is 0.657 ± 0.03.

Q: How did the protein stability index turn out when TPPIPTTTSNFS was run?
A: Its protein stability index is 0.734 ± 0.052.

Q: TPPPASALPPSP was tested. Which protein stability index did it give?
A: Its protein stability index is 0.705 ± 0.014.

Q: For TPPPRSFHRFPC, which protein stability index is on record?
A: The protein stability index was 0.694 ± 0.043.

Q: Which protein stability index does the source give for TPPSPHPCPSPL here?
A: The protein stability index was 0.797 ± 0.064.

Q: TPPVPVPPPQLL was tested. Which protein stability index did it give?
A: The protein stability index was 0.748 ± 0.044.

Q: With TPTPGCYIASLT as the sequence, how does the protein stability index read?
A: The protein stability index was 0.759 ± 0.21.

Q: For TQHKANQGLELI, which protein stability index is on record?
A: The protein stability index was 0.663 ± 0.008.

Q: How did the protein stability index turn out when TQKESEKLNMSK was run?
A: Its protein stability index is 0.667 ± 0.064.

Q: TQNRCGGPSIAL was tested. Which protein stability index did it give?
A: The protein stability index was 0.634 ± 0.03.

Q: Which protein stability index does the source give for TQRIEKEPTKKY here?
A: Its protein stability index is 0.703 ± 0.04.

Q: Which protein stability index does the source give for TRCKLALEKLVG here?
A: Its protein stability index is 0.5986 ± 0.0015.

Q: Which protein stability index does the source give for TRGMDYWLFTGD here?
A: Its protein stability index is 0.706 ± 0.0031.

Q: TRGPKYTMVVKR was tested. Which protein stability index did it give?
A: Its protein stability index is 0.672 ± 0.017.

Q: For TRKESNTIHNEQ, which protein stability index is on record?
A: Its protein stability index is 0.688 ± 0.014.

Q: With TRRGAAAEDQEK as the sequence, how does the protein stability index read?
A: Its protein stability index is 0.697 ± 0.065.

Q: For TRRVPNSRTGTI, which protein stability index is on record?
A: Its protein stability index is 0.74 ± 0.072.

Q: For TRSLPSSSSHSL, which protein stability index is on record?
A: Its protein stability index is 0.727 ± 0.011.

Q: TRTCGRRRAGGR was tested. Which protein stability index did it give?
A: The protein stability index was 0.633 ± 0.1.

Q: How did the protein stability index turn out when TRTRARAIQTAT was run?
A: Its protein stability index is 0.6462 ± 0.0054.

Q: With TRWRPPCAPSGS as the sequence, how does the protein stability index read?
A: Its protein stability index is 0.742 ± 0.076.

Q: With TSAPDSPVPSLP as the sequence, how does the protein stability index read?
A: The protein stability index was 0.695 ± 0.015.

Q: For TSGAQSTRLGRE, which protein stability index is on record?
A: Its protein stability index is 0.778 ± 0.11.

Q: TSIAKRNGLLPG was tested. Which protein stability index did it give?
A: Its protein stability index is 0.719 ± 0.13.

Q: For TSIDIEWYNSLM, which protein stability index is on record?
A: The protein stability index was 0.589 ± 0.026.

Q: With TSIREVPAPCSH as the sequence, how does the protein stability index read?
A: The protein stability index was 0.756 ± 0.032.

Q: How did the protein stability index turn out when TSKYQENKQKKR was run?
A: The protein stability index was 0.7095 ± 0.0057.

Q: Which protein stability index does the source give for TSLIPPASPFAW here?
A: Its protein stability index is 0.643 ± 0.11.
